What all share (format): cell-based, mouse
One test has as its system EO771 cells. Put plainly: Western blot of proteins in treated tumor cells. The method, then:
(§1) Western blot analysis and mass spectrometry. Western blot analysis was conducted using known procedures. Antibodies were used against ANXA1, β-catenin, caspase 3, Lrp5, Lrp6, Runx2, Sclerostin, Snail, TGFβ, NFATc1, cathepsin K (Cell Signaling, Danvers, MA, USA), DMP1, ANXA6, CXCL5 (Abcam, Cambridge, MA, USA), M-CSF, MMP9, OPN, TPM4 (Santa Cruz, Dallas, TX, USA), WISP1 (R&D systems, Minneapolis, MN, USA), β-actin (Sigma, Saint Louis, MO, USA), LIMA1, Trail (Novus, Centennial, CO, USA), p53 and CXCL1 (Invitrogen, Carlsbad, California, USA), and DSP (ProteinTech, Rosemont, IL, USA). The expression levels of Sclerostin and Lrp5 in CM were detected by ELISA (My BioSource, San Diego, CA, USA). Proteins from A5 osteocyte CM, Y4 osteocyte CM, and osteoclast control CM (RAW264.7 cells) were analyzed by the HF Hybrid Quadrupole Orbitrap mass spectrometry. Among 549 identified proteins, 49 proteins presented higher expression levels in A5 CM than Y4 CM and control CM. Among them, 11 proteins (p53; SPARC=osteonectin; TPM1, TPM4=tropomyosin 1 & 4; ANXA1, ANXA6=annexin A1 & A6; FMOD=fibromodulin; OGN=osteoglycin; DSP=desmoplakin; AHNAK=desmoyokin; and LIMA1=LEVI domain actin-binding protein 1) were identified as potential tumor suppressors.
(§2) Western blot analysis and protein array analysis. Western blot analysis was conducted using the procedure previously described. Antibodies against Lrp5, Runx2, Snail, TGFβ, sclerostin, Calr, p-eIF2α, eIF2α (Cell Signaling, Danvers, MA, USA), LIF, Trail (Novus Biologicals, Centennial, CO, USA), MMP9, NFATc1, cathepsin K (Santa Cruz Biotechnology, Dallas, TX, USA), p53, CXCL2, Ppib (Invitrogen, Carlsbad, CA, USA), Hsp90ab1 (Abcam, Cambridge, UK), and β-actin (Sigma, Saint Louis, MO, USA) were used. A proteome profiler mouse XL cytokine array kit (R&D Systems, Minneapolis, MN, USA) was also employed, and the expression of 111 cytokines and chemokines in MSC-derived CM was determined.
Spheroid assay, plasmid transfection, and Western blot analysis. […]
On the technique in general: A western blot detects proteins with antibodies after separation by electrophoresis.

In test [1] the test system is RANKL-stimulated RAW264.7 pre-osteoclasts. Put plainly: Western blot of NFATc1 and cathepsin K. The protocol: as §1, with “Among them, 11 proteins (p53; SPARC=osteonectin; TPM1, TPM4=tropomyosin 1 & 4; ANXA1, ANXA6=annexin A1 & A6; FMOD=fibromodulin; OGN=osteoglycin; DSP=desmoplakin; AHNAK=desmoyokin; and LIMA1=LEVI domain actin-binding protein 1) were identified as potential tumor suppressors.” left out
Western blot analysis and protein array analysis. […] A proteome profiler mouse XL cytokine array kit (R&D Systems, Minneapolis, MN, USA) was also employed, and the expression of 111 cytokines and chemokines in MSC-derived CM was determined.
Western blot analysis. […] The protein concentration was determined using a BCA Protein Assay kit (Thermo-Fisher). […]

A further test concerns TRAMP cells. Put plainly: Western blot of proteins in treated tumor cells. The protocol:
as §2
Western blot analysis. Cultured cells were lysed in a radio-immunoprecipitation assay buffer with protease inhibitors (Santa Cruz Biotechnology, Santa Cruz, CA, USA) and phosphatase inhibitors (Calbiochem, Billerica, MA, USA). The protein concentration was determined using a BCA Protein Assay kit (Thermo-Fisher). Proteins were fractionated by 10-15% SDS gels and electro-transferred to polyvinylidene difluoride transfer membranes (Millipore, Billerica, MA, USA). […] The level of proteins was determined using a SUPERSIGNAL™ west femto maximum sensitivity substrate (Thermo Scientific, Waltham, MA, USA), and a luminescent image analyzer (LAS-3000, Fuji Film, Tokyo, Japan) was used to quantify signal intensities. […]

B1: Trail: recombinant TRAIL proteins, apoptosis-inducing factor (protein, UniProt P50592 1-291, looked up)
Tumor necrosis factor ligand …: MPSSGALKDLSFSQHFRMMVICIVLLQVLLQAVSVAVTYMYFTNEMKQLQDNYSKIGLACFSKTDEDFWDSTDGEILNRPCLQVKRQLYQLIEEVTLRTFQDTISTVPEKQLSTPPLPRGGRPQKVAAHITGITRRSNSALIPISKDGKTLGQKIESWESSRKGHSFLNHVLFRNGELVIEQEGLYYIYSQTYFRFQEAEDASKMVSKDKVRTKQLVQYIYKYTSYPDPIVLMKSARNSCWSRDAEYGLYSIYQGGLFELKKNDRIFVSVTNEHLMDLDQEASFFGAFLIN
Take B1: in the test with EO771 cells, the “tumor-promoting/tumorigenic proteins (Lrp5, MMP9, Runx2, TGFβ, Snail, IL1β etc.) in EO771 cells” value is “reduced”. In addition, the “NFATc1 and cathepsin K” value in test [1] was “decreased”. The “cleaved caspase 3 in TRAMP cells” value with TRAMP cells was “increase”. In addition, the “tumor-promoting genes (Lrp5, Runx2, MMP9, Snail, TGFβ) in TRAMP cells” value in the test with TRAMP cells (Western blot) is given as “downregulated”.
